Biological target: Mig1 (Xanthophyllomyces dendrorhous, UniProt A0A1C9UL02 1-863)
Assay: EMSA; poly(dI-dC); 20 mM HEPES pH 7.9, 50 mM KCl, 1 mM DTT, 0.1 mM EDTA, 5% glycerol (+2.5%), 200 ug/ml BSA, 50 ng/ul poly(dI-dC), 0.05% NP-40, 20 fmol DNA, 10 ug Mig1 in 20 ul, room temperature 20 min
Settings: protein: recombinant; (pET-TEV), removed by TEV protease; label: 5' biotin; blunt

Mig1, sequence (A0A1C9UL02 entry or part of it): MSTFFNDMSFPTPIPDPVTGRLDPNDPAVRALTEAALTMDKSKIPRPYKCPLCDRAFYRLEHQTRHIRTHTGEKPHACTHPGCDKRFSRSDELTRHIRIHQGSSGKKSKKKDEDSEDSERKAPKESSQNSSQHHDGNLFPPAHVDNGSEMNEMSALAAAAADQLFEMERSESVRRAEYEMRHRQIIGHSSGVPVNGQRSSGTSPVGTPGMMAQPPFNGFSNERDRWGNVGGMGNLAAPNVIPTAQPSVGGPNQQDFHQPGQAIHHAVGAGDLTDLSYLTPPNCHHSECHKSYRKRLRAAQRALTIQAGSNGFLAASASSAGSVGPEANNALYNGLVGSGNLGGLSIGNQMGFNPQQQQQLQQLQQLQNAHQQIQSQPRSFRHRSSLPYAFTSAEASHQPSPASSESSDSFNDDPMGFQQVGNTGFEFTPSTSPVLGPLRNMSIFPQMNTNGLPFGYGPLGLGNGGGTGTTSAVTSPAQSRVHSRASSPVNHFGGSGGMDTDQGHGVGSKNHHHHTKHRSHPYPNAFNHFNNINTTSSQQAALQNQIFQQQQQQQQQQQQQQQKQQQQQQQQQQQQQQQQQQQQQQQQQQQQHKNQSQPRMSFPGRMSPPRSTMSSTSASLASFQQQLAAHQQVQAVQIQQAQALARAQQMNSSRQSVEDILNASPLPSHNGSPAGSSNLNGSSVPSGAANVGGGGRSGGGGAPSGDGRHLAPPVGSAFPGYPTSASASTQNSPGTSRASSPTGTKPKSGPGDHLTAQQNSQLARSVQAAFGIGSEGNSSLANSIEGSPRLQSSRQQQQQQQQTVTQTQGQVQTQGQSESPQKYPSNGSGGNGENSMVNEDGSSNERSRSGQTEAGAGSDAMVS

B1: grg2 box A (-348) 54 bp (dsDNA)
DNA 1: GAGGTATATGCGTTCCGCGAACTGCGGAGATGTGACGTCACATCTCGTCACAGC
DNA 2: GCTGTGACGAGATGTGACGTCACATCTCCGCAGTTCGCGGAACGCATATACCTC
- binding result: binds
